Laboratory results published in patent US20160097044A1, “Antimicrobial Enzyme Fusions Reduce Resistance and Kill Intracellular Staphylococcus aureus” (The United States of America, as Represented by the …, priority 2014, published 2016).

B1: L-K: LysK lytic domains inserted between lysostaphin's M23 endopeptidase domain and SH3b cell wall binding domain; SEQ ID NO:7, protein SEQ ID NO:8 (protein)
chain: MAATHEHSAQWLNNYKKGYGYGPYPLGINGGMHYGVDFFMNIGTPVKAISSGKIVEAGWSNYGGGNQIGLIENDGVHRQWYMHLSKYNVKVGDYVKAGQIIGWSGSTGYSTAPHLHFQRMVNSFSNSTAQDPMPFLKSAGYGKAGGTVTPTPNTGLDAKTQAEINKRLDAYAKGTVDSPYRVKKATSYDPSFGVMEAGAIDADGYYHAQCQDLITDYVLWLTDNKVRTWGNAKDQIKQSYGTGFKIHENKPSTVPKKGWIAVFTSGSYEQWGHIGIVYDGGNTSTFTILEQNWNGYANKKPTKRVDNYYGLTHFIEIPVKAGTTVKKETAKKSASKTPAPKKKATLKVSKNHINYTMDKRGKKPEGMVIHNDAGRSSGQQYENSLANAGYARYANGIAHYYGSEGYVWEAIDAKNQIAWHTGDGTGANSGNFRFAGIEVCQSMSASDAQFLKNEQAVFQFTAEKFKEWGLTPNRKTVRLHMEFVPTACPHRSMVLHTGFNPVTQGRPSQAIMNKLKDYFIKQIKNYMDKGTSSSTVVKDGKTSSASLDTVTPTPNTGWKTNKYGTLYKSESASFTPNTDIITRTTGPFRSMPQSGVLKAGQTIHYDEVMKQDGHVWVGYTGNSGQRIYLPVRTWNKSTNTLGVLWGTIKLEHHHHHH
modifications: Staphylococcus simulans & Phage K

Experiments:
[1] = tested on: live S. aureus strain Newman cells; test: Turbidity reduction assay; assay type: cell-based; settings: 30 minute assay, 150 mM NaCl in SLB, FIG. 3d
Source text: FIGS. 3a-3d depict peptidoglycan hydrolase purity and the S. aureus bactericidal assay. […] FIG. 3b is a zymogram analysis using whole S. aureus (Newman) cells embedded within the gel matrix. FIG. 3c is a plate lysis analysis of peptidoglycan hydrolase constructs using live S. aureus (Newman) cell lawns clarified with indicated picomoles of each purified peptidoglycan hydrolase. FIG. 3d is a turbidity reduction analysis showing the linear range of enzyme concentration. A twofold dilution series of each enzyme was used in a 30 minute turbidity reduction assay on live S. aureus strain Newman cells to determine the enzyme concentrations that are within the linear range for each enzyme. Reaction conditions were 150 mM NaCl in SLB. Black, dark grey, light grey, and white bars represent peptidoglycan hydrolase constructs lysostaphin (L), LysK (K), triple fusion K-L, and triple fusion L-K, respectively, as named in FIG. 1a. Values are reported as the maximum rate ΔOD600nm/min±SEM.
SDS-PAGE, zymogram, turbidity reduction and plate lysis assays were performed as described previously (Becker et al. 2009, supra) with minor modifications as follows. For SDS-PAGE and zymogram analysis, one μg of the purified peptidoglycan hydrolase proteins and Kaleidoscope protein standards (Invitrogen, Carlsbad, Calif.) were analyzed by 15% SDS-PAGE. […]

S. aureus Newbould 305 = test: Murine model of mastitis, bacterial load; assay type: in vivo, C57BL6/SJL mice; settings: single 1.25 nmoles intramammary infusion 30 minutes post infection, 18 h
Description: FIG. 6a depicts the specific activity of peptidoglycan hydrolase fusion constructs in vitro in a turbidity reduction assay with S. aureus Newbould 305 resuspended in lysis buffer to an OD600nm of 1.0 and treated with 1 μM final concentrations of each peptidoglycan hydrolase. The maximum specific activity for three experiments are represented as an average with SEM error bars. FIG. 6b depicts the bacterial burden in mice with mastitis treated with recombinant peptidoglycan hydrolases. Colony Forming Units (CFUs) from infected murine mammary glands following a single treatment with 50 μl of 25 μM peptidoglycan hydrolase (1.25 nmol). Each data point represents the average of duplicate bacterial platings. The horizontal bars represent the average CFU/mg for each group. FIG. 6c illustrates the TNFα response in mice with mastitis that were treated with peptidoglycan hydrolases. Data represents a minimum of 7 measurements in duplicate. Log TNFα was used for statistical analysis. Single asterisks indicate a significant difference from buffer control (p<0.05); double asterisks indicate a significant difference from the parental enzyme (p<0.05).
To evaluate the efficacy of purified, individually administered peptidoglycan hydrolases in a murine model of bovine mastitis, female C57BL6/SJL mice were challenged by the intramammary route with 100 CFU S. aureus Newbould 305 in 50 μl buffer. A single 1.25 nmoles intramammary infusion of each desired peptidoglycan hydrolase (50 μl of a 25 μM solution) or 50 μl PBS was given 30 minutes post infection [with up to six glands treated per animal, each gland receiving a unique treatment] as described earlier (Schmelcher et al. 2012. Appl. Environ. Microbiol. 78:2297-2305; Kerr et al. 2001. Nat. Biotechnol. 19:66-70). Dams were euthanized 18 h post infusion, the mammary glands were aseptically dissected, and portions of the gland were used for determination of bacterial load and TNFα concentrations, as described previously (Schmelcher et al., supra).
Statistical analysis: The variables were analyzed as two-factor mixed models with Treatment as the factor and Mouse as random Blocks. This model […] within mouse correlations. Log(TNFα) was used. The variance grouping technique was used for log CFU and log TNFα to correct for variance heterogeneity. Means comparisons were done with Sidak adjusted p-values so that the experiment-wise error was 0.05. Log(TNFα) is back-transformed to the original units for graphing.

| Molecule | turbidity reduction activity compared to parental enzymes [1] | bacterial load / clearance of mammary glands (in words) (S. aureus Newbould 305) | reduction of bacterial load in mammary glands compared to controls (S. aureus Newbould 305) |
| --- | --- | --- | --- |
| K-L: both LysK lytic domains fused to the N-terminus of lysostaphin; SEQ ID NO:5, protein SEQ ID NO:6 | as effective as the parental peptidoglycan hydrolases | not able to clear the mammary gland bacterial infection more than buffer alone | – |
| L: 247 amino acid mature (secreted) lysostaphin, staphylolytic bacteriocin, C-terminal His6 tag; SEQ ID NO:1 [reference compound] | – | – | approximately 4 logs |
| B1 | as effective as the parental peptidoglycan hydrolases | – | – |
